From the supplement of paper PMC10724198
± gives the standard deviation of the averaged measurements.

Experiments:
Saccharomyces cerevisiae [1] = experiment: protein stability index of tFT-peptide fusion (C-terminal peptide) (PSI (0-1 scale)); higher = more stable (slower turnover)
Procedure: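 MPS profiling in S. cerevisiae of the tFT-X12 degron library: putative degron peptides plus stable controls, 12 aa, fused to the C-terminus of a sfGFP-mCherry timer. Cells are FACS-sorted into 8 mCherry/sfGFP bins and deep-sequenced. PSI runs from 0 (unstable) to 1 (stable). Backgrounds are wild type, das1Δ and doa10Δ at 30 °C, and wild type, das1Δ, cdc34-1 and cdc53-1 at 37 °C; 2-3 technical replicates each.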

Saccharomyces cerevisiae [2] = experiment: as above; conditions: genetic background: wild type; temperature: 30 C
[3] = genetic background: cdc34-1, temperature: 37 C
[4] = genetic background: cdc53-1, temperature: 37 C
[5] = genetic background: das1 deletion, temperature: 30 C
[6] = genetic background: das1 deletion, temperature: 37 C
[7] = genetic background: doa10 deletion, temperature: 30 C
[8] = genetic background: wild type, temperature: 30 C
[9] = genetic background: wild type, temperature: 37 C
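Also: PSI is a weighted mean of sequencing reads over stability bins, variants kept only with over 10 reads, mCherry proximal and sfGFP distal, peptide attached via GGGS linker.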

Row | Sequence | protein stability index (Saccharomyces cerevisiae [1]; [3]) | protein stability index (Saccharomyces cerevisiae [1]; [4]) | protein stability index (Saccharomyces cerevisiae [1]; [5]) | protein stability index (Saccharomyces cerevisiae [1]; [6]) | protein stability index (Saccharomyces cerevisiae [1]; [7]) | protein stability index (Saccharomyces cerevisiae [1]; [8]) | protein stability index (Saccharomyces cerevisiae [1]; [9]) | protein stability index (Saccharomyces cerevisiae [2])
1 | LVCFFLFSLFYL | 0.433 ± 0.02 | 0.479 ± 0.018 | 0.335 ± 0.028 | 0.5331 ± 0.0039 | 0.357 ± 0.015 | 0.358 ± 0.029 | 0.5098 ± 0.0013 | 0.386 ± 0.037
2 | LVFCFRSLFLCS | 0.57 ± 0.057 | 0.603 ± 0.0097 | 0.542 ± 0.012 | 0.6784 ± 0.0048 | 0.254 ± 0.014 | 0.243 ± 0.019 | 0.39121 ± 0.00016 | 0.34 ± 0.022
3 | LVFRIRNANRLV | 0.615 ± 0.046 | 0.7144 ± 0.0041 | 0.6418 ± 0.0024 | 0.728 ± 0.024 | 0.127 ± 0.015 | 0.164 ± 0.026 | 0.314 ± 0.03 | 0.309 ± 0.014
4 | LVFSVIPVLFVL | 0.454 ± 0.011 | 0.474 ± 0.025 | 0.355 ± 0.015 | 0.528 ± 0.017 | 0.328 ± 0.015 | 0.318 ± 0.022 | 0.461 ± 0.027 | 0.419 ± 0.087
5 | LVGTRTIFCFLH | 0.618 ± 0.017 | 0.721 ± 0.0084 | 0.57 ± 0.018 | 0.741 ± 0.027 | 0.207 ± 0.0076 | 0.218 ± 0.026 | 0.401 ± 0.0054 | 0.3164 ± 0.002
6 | LVGWSWAACWLA | 0.522 ± 0.057 | 0.608 ± 0.029 | 0.58 ± 0.024 | 0.712 ± 0.019 | 0.292 | 0.298 ± 0.012 | 0.396 ± 0.012 | 0.408 ± 0.016
7 | LVILRCAFPVYG | 0.469 ± 0.011 | 0.529 ± 0.0084 | 0.339 ± 0.03 | 0.538 ± 0.009 | 0.298 ± 0.014 | 0.332 ± 0.043 | 0.51345 ± 9.4e-05 | 0.3963 ± 0.00083
8 | LVLFVCFSLFMR | 0.153 ± 0.0065 | 0.166 ± 0.037 | 0.189 ± 0.019 | 0.291 ± 0.012 | 0.219 ± 0.0087 | 0.168 ± 0.022 | 0.2732 ± 0.00043 | 0.309 ± 0.058
9 | LVLPAFLLLLYP | 0.2108 ± 0.0018 | 0.183 ± 0.022 | 0.307 ± 0.034 | 0.4212 ± 0.0012 | 0.509 ± 0.023 | 0.309 ± 0.028 | 0.367 ± 0.0037 | 0.4134 ± 0.0013
10 | LVLVLAVFGCHD | 0.397 ± 0.022 | 0.543 ± 0.079 | 0.305 ± 0.03 | 0.563 ± 0.02 | 0.284 ± 0.014 | 0.319 ± 0.036 | 0.477 ± 0.024 | 0.42 ± 0.061
11 | LVNSPSISSLWL | 0.695 ± 0.019 | 0.736 ± 0.034 | 0.688 ± 0.015 | 0.746 ± 0.0087 | 0.6786 ± 0.0038 | 0.691 ± 0.018 | 0.719 ± 0.008 | 0.586 ± 0.22
12 | LVSLLYFIVSLF | 0.516 ± 0.013 | 0.579 ± 0.033 | 0.473 ± 0.0089 | 0.566 ± 0.031 | 0.241 ± 0.018 | 0.254 ± 0.011 | 0.323 ± 0.014 | 0.311 ± 0.007
13 | LVTRVFVYFSIG | 0.498 ± 0.061 | 0.583 ± 0.035 | 0.403 ± 0.034 | 0.554 ± 0.036 | 0.323 ± 0.0055 | 0.35 ± 0.034 | 0.514 ± 0.0066 | 0.413 ± 0.012
14 | LVVEALFYVLVS | 0.036 ± 0.011 | 0.0563 ± 0.025 | 0.126 ± 0.025 | 0.181 ± 0.0096 | 0.0851 ± 0.0085 | 0.107 ± 0.021 | 0.124 ± 0.014 | 0.219 ± 0.054
15 | LVVFFPVLPIFG | 0.504 ± 0.02 | 0.554 ± 0.0072 | 0.394 ± 0.027 | 0.566 ± 0.016 | 0.383 ± 0.014 | 0.408 ± 0.0064 | 0.58 ± 0.077 | 0.4965 ± 0.0017
16 | LVVRLFVWDVVW | 0.34 ± 0.016 | 0.374 ± 0.028 | 0.269 ± 0.043 | 0.473 ± 0.0097 | 0.224 ± 0.006 | 0.266 ± 0.028 | 0.436 ± 0.0076 | 0.347 ± 0.045
17 | LWAVGWIIYFIV | 0.0967 ± 0.0059 | 0.245 ± 0.014 | 0.211 ± 0.028 | 0.362 ± 0.0042 | 0.106 ± 0.026 | 0.106 ± 0.011 | 0.0941 ± 0.006 | 0.172 ± 0.024
18 | LWLISTYQLIGI | 0.454 ± 0.021 | 0.583 ± 0.048 | 0.433 ± 0.011 | 0.5727 ± 0.0033 | 0.431 ± 0.022 | 0.451 ± 0.0091 | 0.536 ± 0.034 | 0.521 ± 0.032
19 | MALAVRVVWCGA | 0.179 ± 0.014 | 0.179 ± 0.024 | 0.204 ± 0.034 | 0.328 ± 0.0034 | 0.173 ± 0.0053 | 0.207 ± 0.025 | 0.295 ± 0.0084 | 0.269 ± 0.014
20 | MCFFVFVLFLFC | 0.307 ± 0.034 | 0.398 ± 0.12 | 0.281 ± 0.029 | 0.406 ± 0.013 | 0.2977 ± 0.0013 | 0.269 ± 0.033 | 0.377 ± 0.011 | 0.33 ± 0.015

Row | Sequence | protein stability index (Saccharomyces cerevisiae [1]; [3]) | protein stability index (Saccharomyces cerevisiae [1]; [4]) | protein stability index (Saccharomyces cerevisiae [1]; [5]) | protein stability index (Saccharomyces cerevisiae [1]; [6]) | protein stability index (Saccharomyces cerevisiae [1]; [7]) | protein stability index (Saccharomyces cerevisiae [1]; [8]) | protein stability index (Saccharomyces cerevisiae [1]; [9]) | protein stability index (Saccharomyces cerevisiae [2])
21 | MLVWCLFWVACV | 0.203 ± 0.026 | 0.29 ± 0.0085 | 0.22 ± 0.028 | 0.355 ± 0.01 | 0.148 ± 0.011 | 0.168 ± 0.025 | 0.258 ± 0.0057 | 0.236 ± 0.0031
22 | MRMEGPLALSVR | 0.5519 ± 0.005 | 0.558 ± 0.016 | 0.395 ± 0.028 | 0.558 ± 0.0087 | 0.353 ± 0.019 | 0.403 ± 0.017 | 0.551 ± 0.006 | 0.48 ± 0.011
23 | MRVCLCLMLIVN | 0.179 ± 0.024 | 0.282 ± 0.031 | 0.214 ± 0.018 | 0.372 ± 0.0069 | 0.143 ± 0.022 | 0.148 ± 0.028 | 0.238 ± 0.0029 | 0.238 ± 0.033
24 | NARNPKKNRDQI | 0.697 ± 0.037 | 0.7226 ± 0.0072 | 0.627 ± 0.026 | 0.705 ± 0.032 | 0.633 ± 0.02 | 0.666 ± 0.058 | 0.70322 ± 0.00025 | 0.524 ± 0.093
25 | NFFYLFLSFGFG | 0.523 ± 0.076 | 0.565 ± 0.034 | 0.48 ± 0.025 | 0.588 ± 0.0086 | 0.46 ± 0.029 | 0.482 ± 0.03 | 0.552 ± 0.0068 | 0.436 ± 0.022
26 | NGSCRVVMYIKG | 0.667 ± 0.014 | 0.731 ± 0.022 | 0.592 ± 0.025 | 0.717 ± 0.014 | 0.588 ± 0.027 | 0.61 ± 0.0079 | 0.662 ± 0.017 | 0.552 ± 0.08
27 | NKEEHQQKQRIH | 0.636 ± 0.04 | 0.711 ± 0.02 | 0.663 ± 0.02 | 0.719 ± 0.031 | 0.619 ± 0.057 | 0.646 ± 0.049 | 0.698 ± 0.00079 | 0.461 ± 0.15
28 | NKTTKNKKRKLS | 0.467 ± 0.081 | 0.612 ± 0.048 | 0.697 ± 0.027 | 0.656 ± 0.0059 | 0.0924 ± 0.038 | 0.125 ± 0.067 | 0.173 ± 0.011 | 0.159 ± 0.014
29 | NKYNQFKWHINH | 0.624 ± 0.12 | 0.698 ± 0.014 | 0.624 ± 0.026 | 0.742 ± 0.019 | 0.134 ± 0.034 | 0.136 ± 0.0086 | 0.295 ± 0.031 | 0.295 ± 0.0036
30 | NRLHYSPLYTIY | 0.641 ± 0.087 | 0.735 ± 0.033 | 0.653 ± 0.0076 | 0.753 ± 0.0065 | 0.111 ± 0.011 | 0.153 ± 0.015 | 0.256 ± 0.0026 | 0.239 ± 0.0099
31 | NSFASFVVVFVI | 0.371 ± 0.018 | 0.437 ± 0.047 | 0.264 ± 0.034 | 0.512 ± 0.015 | 0.1956 ± 0.00071 | 0.227 ± 0.036 | 0.472 ± 0.03 | 0.34 ± 0.036
32 | NTDRRNICKISS | 0.493 ± 0.031 | 0.671 ± 0.059 | 0.631 ± 0.02 | 0.733 ± 0.0086 | 0.105 ± 0.0079 | 0.1084 ± 0.00051 | 0.169 ± 0.0083 | 0.163 ± 0.044
33 | NTREGFIILARA | 0.523 ± 0.014 | 0.537 ± 0.018 | 0.369 ± 0.03 | 0.573 ± 0.022 | 0.296 ± 0.0041 | 0.349 ± 0.066 | 0.5303 ± 0.0025 | 0.529 ± 0.065
34 | PACFPPPSPFAP | 0.643 ± 0.056 | 0.741 ± 0.026 | 0.712 ± 0.015 | 0.7326 ± 0.0022 | 0.718 ± 0.019 | 0.696 ± 0.029 | 0.725 ± 0.022 | 0.44 ± 0.034
35 | PFDTPSHPNPLF | 0.707 ± 0.034 | 0.789 ± 0.086 | 0.69 ± 0.026 | 0.777 ± 0.024 | 0.711 ± 0.026 | 0.729 ± 0.014 | 0.762 ± 0.019 | 0.744 ± 0.037
36 | PFGYYLFVPVCY | 0.29 ± 0.0094 | 0.343 ± 0.021 | 0.265 ± 0.029 | 0.3985 ± 0.00045 | 0.238 ± 0.0039 | 0.25 ± 0.027 | 0.364 ± 0.0044 | 0.349 ± 0.0044
37 | PFLPFPPPLPAY | 0.4873 ± 0.0045 | 0.553 ± 0.015 | 0.394 ± 0.026 | 0.5646 ± 0.0038 | 0.362 ± 0.0056 | 0.408 ± 0.018 | 0.5079 ± 0.0042 | 0.0909 ± 0.028
38 | PFYAYHFSLSVY | 0.13 ± 0.006 | 0.164 ± 0.0048 | 0.103 ± 0.028 | 0.227 ± 0.015 | 0.0245 ± 0.0025 | 0.0234 ± 0.0066 | 0.0924 ± 0.0037 | 0.0344 ± 0.01
39 | PIFFFGRLLFFL | 0.545 ± 0.045 | 0.592 ± 0.022 | 0.467 ± 0.0098 | 0.5856 ± 0.0046 | 0.3094 ± 0.0008 | 0.314 ± 0.014 | 0.499 ± 0.074 | 0.369 ± 0.016
